Patent US20260234255A1 (Genmab, published 2026)
Numbering of substitutions follows the chain as printed.

T1: human CD30 (human, UniProt P28908 19-595)
T1 construct: The same molecule is used for CD30 on HL/ALCL/NHL cell lines; also called huCD30; TNFRSF8
T1 sequence: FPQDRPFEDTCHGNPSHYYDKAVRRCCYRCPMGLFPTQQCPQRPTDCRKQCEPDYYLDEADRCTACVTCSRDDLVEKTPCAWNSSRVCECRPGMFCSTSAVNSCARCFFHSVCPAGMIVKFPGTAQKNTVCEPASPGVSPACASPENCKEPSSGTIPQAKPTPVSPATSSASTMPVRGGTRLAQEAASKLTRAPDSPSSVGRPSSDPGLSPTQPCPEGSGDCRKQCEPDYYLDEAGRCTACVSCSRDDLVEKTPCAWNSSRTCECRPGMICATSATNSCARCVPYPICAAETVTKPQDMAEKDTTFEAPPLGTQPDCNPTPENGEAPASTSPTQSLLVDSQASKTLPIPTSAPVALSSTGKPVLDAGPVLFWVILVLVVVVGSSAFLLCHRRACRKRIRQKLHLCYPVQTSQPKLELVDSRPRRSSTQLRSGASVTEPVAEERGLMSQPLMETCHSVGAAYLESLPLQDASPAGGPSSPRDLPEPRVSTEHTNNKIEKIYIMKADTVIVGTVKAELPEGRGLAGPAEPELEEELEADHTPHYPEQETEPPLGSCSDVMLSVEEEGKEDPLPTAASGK

B1: bsG1-huCD3-FEALxCD30-MDX060-FEAR (bispecific antibody, human IgG1, kappa, lambda)
heavy 1: not shown
light 1: not shown
heavy 2: QVQLQQWGAGLLKPSETLSLTCAVYGGSFSAYYWSWIRQPPGKGLEWIGDINHGGGTNYNPSLKSRVTISVDTSKNQFSLKLNSVTAADTAVYYCASLTAYWGQGSLVTVSSASTKGPSVFPLAPSSKSTSGGTAALGCLVKDYFPEPVTVSWNSGALTSGVHTFPAVLQSSGLYSLSSVVTVPSSSLGTQTYICNVNHKPSNTKVDKRVEPKSCDKTHTCPPCPAPEFEGGPSVFLFPPKPKDTLMISRTPEVTCVVVAVSHEDPEVKFNWYVDGVEVHNAKTKPREEQYNSTYRVVSVLTVLHQDWLNGKEYKCKVSNKALPAPIEKTISKAKGQPREPQVYTLPPSREEMTKNQVSLTCLVKGFYPSDIAVEWESNGQPENNYKTTPPVLDSDGSFFLYSRLTVDKSRWQQGNVFSCSVMHEALHNHYTQKSLSLSPG
light 2: DIQMTQSPTSLSASVGDRVTITCRASQGISSWLTWYQQKPEKAPKSLIYAASSLQSGVPSRFSGSGSGTDFTLTISSLQPEDFATYYCQQYDSYPITFGQGTRLEIKRTVAAPSVFIFPPSDEQLKSGTASVVCLLNNFYPREAKVQWKVDNALQSGNSQESVTEQDSKDSTYSLSSTLTLSKADYEKHKVYACEVTHQGLSSPVTKSFNRGEC
notes: also called bsG1-huCD3xCD30-MDX060
B2: bsG1-huCD3-FEALxCD30-MDX060-FERR (bispecific antibody, human IgG1, kappa, lambda)
heavy 1: not shown
light 1: not shown
heavy 2: B1 heavy 2 with G231R, A260D
light 2: B1 light 2
notes: Bispecific IgG1 made by controlled Fab-arm exchange; also called bsIgG1-huCD3-FEALxCD30-MDX060-FERR; bsG1-huCD3×CD30-MDX060

Key:
human CD30 [1] = molecular target: T1, human CD30; assay: flow cytometry, HDLM-2 cells, experiment N = 2
human CD30 [2] = molecular target: T1, human CD30; assay: flow cytometry, L-540 cells (HL), average of 3 tests
Description: (§1) Cells (3×10⁴ cells/well) were incubated in polystyrene 96-well round-bottom plates (Greiner bio-one, cat. no. 650180) with serial dilutions of antibodies (range 0.0046 to 10 μg/mL in 3-fold dilution steps) in 50 μL staining buffer at 4° C. for 30 min. After washing twice in staining buffer, cells were incubated with 50 μL secondary antibody at 4° C. for 30 min. […] Next, cells were washed twice in staining buffer, resuspended in 100 μL staining buffer supplemented with TO-PRO-3 iodide (Thermo Fisher Scientific; cat. no. T3605; 1:8000 dilution) and analyzed on a FACSCelesta flow cytometer (BD Biosciences, USA). Live cells were gated based on FSC/SSC and absence of TOPRO-3 staining. Binding curves were analyzed by non-linear regression of log-transformed data (sigmoidal dose-response with variable slope, four parameters) using GraphPad Prism V7.02 software (GraphPad Software, San Diego, CA, USA).

human CD30 [3] = molecular target: T1, human CD30; assay: flow cytometry, HDLM-2 cells (HL), average of 3 tests
Description: as §1

human CD30 [4] = molecular target: T1, human CD30; assay: flow cytometry, KM-H2 cells (HL), average of 3 tests
Description: as §1

human CD30 [5] = molecular target: T1, human CD30; assay: flow cytometry, JVM-2 cells (MCL), range of 3 tests
Description: as §1

complement protein C1q = molecular target: T2, complement protein C1q (human, UniProt P02745 23-245; P02746 28-253; P02747 29-245); assay: flow cytometry with FITC anti-C1q; antibody-opsonized activated human CD8+ T cells, 20% normal human serum as the source of C1q
T2 construct: 20% human serum was used as the source of C1q
T2 sequence (P02745 23-245 limits assumed, chain 1 of 3): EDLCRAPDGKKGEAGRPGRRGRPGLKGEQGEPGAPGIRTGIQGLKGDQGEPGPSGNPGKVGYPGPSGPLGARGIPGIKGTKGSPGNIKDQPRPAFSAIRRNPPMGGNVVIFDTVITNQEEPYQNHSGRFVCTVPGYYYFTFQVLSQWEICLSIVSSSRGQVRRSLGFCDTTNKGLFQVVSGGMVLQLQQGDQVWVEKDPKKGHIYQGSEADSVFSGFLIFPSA
T2 sequence (P02746 28-253 limits assumed, chain 2 of 3): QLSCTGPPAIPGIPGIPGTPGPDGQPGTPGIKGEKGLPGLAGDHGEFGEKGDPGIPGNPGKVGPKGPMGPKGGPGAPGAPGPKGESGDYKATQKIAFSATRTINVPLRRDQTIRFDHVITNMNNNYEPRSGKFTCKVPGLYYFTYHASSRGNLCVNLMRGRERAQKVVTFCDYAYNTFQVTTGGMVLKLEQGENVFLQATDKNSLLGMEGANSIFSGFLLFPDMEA
T2 sequence (P02747 29-245 limits assumed, chain 3 of 3): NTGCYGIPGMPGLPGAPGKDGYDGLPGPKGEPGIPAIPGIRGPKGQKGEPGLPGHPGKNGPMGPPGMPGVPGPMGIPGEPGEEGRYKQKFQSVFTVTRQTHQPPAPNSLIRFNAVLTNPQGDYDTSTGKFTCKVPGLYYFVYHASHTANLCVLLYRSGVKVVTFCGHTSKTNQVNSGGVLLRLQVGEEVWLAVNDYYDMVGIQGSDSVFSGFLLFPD
Description: Activated CD8⁺ T cells were seeded in a round-bottom 96-well plate (30,000 cells/well), pelleted, and resuspended in 30 μL assay medium (RPMI-1640 with 25 mM HEPES and L-glutamine, supplemented with 0.1% [w/v] bovine serum albumin fraction V (BSA; Roche, cat. no. 10735086001) and penicillin/streptomycin).
Human serum (20 μL/well; Sanquin, lot 20L15-02), as a source of C1q, was added to a final concentration of 20%. Cells were incubated on ice for 45 min, followed by two washes with cold GMB FACS buffer and incubation with 50 μL fluorescein isothiocyanate (FITC)-conjugated rabbit anti-human C1q (final concentration of 20 μg/mL (DAKO, cat no. F0254); diluted 1:75 in GMB FACS buffer) in the presence or absence of allophycocyanin-conjugated mouse-anti-CD8 (BD Biosciences, cat. no. 555369; diluted 1:50 in GMB FACS buffer) in the dark at 4° C. for 30 min. […] C1q binding to viable cells (as identified by DAPI exclusion) was analyzed by flow cytometry on an iQue3 Screener (Intellicyt Corporation). Data were analyzed using iQue software (Intellicyt Corporation, ForeCyt® Enterprise Client Edition 6.2 [R3], Version 6.2.652).

| Binder | EC50 (human CD30 [1]) [µg/mL] | EC50 (human CD30 [2]) [µg/mL] | EC50 (human CD30 [3]) [µg/mL] | EC50 (human CD30 [4]) [µg/mL] | EC50 (human CD30 [5]) [µg/mL] | binding result (complement protein C1q) |
| --- | --- | --- | --- | --- | --- | --- |
| B1 | 0.12 |  |  |  |  |  |
| B2 |  | 0.323 | 0.167 | 0.159 | 0.107 to 0.141 | no binding (tested: about 30 µg/mL) |
